This is an account of results in the supplement of paper PMC7877785.

± gives the uncertainty stated by the source.

This data set is described as follows: self-splicing fitness, log relative to wild type (ln ratio); higher = more splicing; Tetrahymena group I intron in knt gene, E. coli kanamycin selection, DiMSum; sequences stand for … in CUCUCU…GGAGGGAAAAGUUAUCAGGCAUGCACCUGGUAGCUAGUCUUUAAACCAAUAGAUUGCAUCGGUUUAAAAGGCAAGACCGUCAAAUUGCGGGAAAGGGGUCAACAGCCGUUCAGUACCAAGUCUCAGGGGAAACUUUGAGAUGGCCUUGCAAAGGGUAUGGUAAUAAGCUGACGGACAUGGUCCUAACCACGCAGCCAAGUCCUAAGUCAACAGAUCUUCUGUUGAUAUGGAUGCAGUUCACAGACUAAAUGUCGGUCGGGGAAGAUGUAUUCUUCUCAUAAGAUAUAGUCGGACCUCUCCUUAAUGGGAGCUAGCGGAUGAAGUGAUGCAACACUGGAGCCGCUGGGAACUAAUUUGUAUGCGAAAGUAUAUUGAUUAGUUUUGGAGUACUCGUGGUCG
A digest of the protocol:
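Library with all eight P1ex-region intron nucleotides randomised, intron inside the knt kanamycin-resistance gene on pET-22b(+), in E. coli BL21(DE3). Cells grew overnight at 37°C or 30°C on LB agar with or without 25 μg/mL kanamycin (plus 100 μg/mL carbenicillin, 50 μM IPTG, 0.2% rhamnose), in six replicate transformations. Pooled colonies were amplicon-sequenced on Illumina HiSeq 2500. DiMSum fitness is the error-weighted combination of wild-type-normalised replicate fold changes, kanamycin versus none.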

Take UCAUAGCAAUAUUACGGCCG: the “self-splicing fitness (ln)” value (30 °C) is -0.395 ± 0.15 and the “self-splicing fitness (ln)” value (37 °C) stood at 0.157 ± 0.16.

With UCAUAGCAAUAUUACGGCGG, the “self-splicing fitness (ln)” value is, setting by setting: (30 °C) -0.555 ± 0.059; (37 °C) 0.417 ± 0.074.

As to UCAUAGCAAUAUUACGGGAA, the “self-splicing fitness (ln)” value was -1.35 ± 0.19 (30 °C) and -1.1 ± 0.16 (37 °C).

In the case of UCAUAGCAAUAUUACGGGAG, the “self-splicing fitness (ln)” value runs as follows: (30 °C) -3.39 ± 0.26; (37 °C) -3.06 ± 0.29.

For the sequence UCAUAGCAAUAUUACGGUGA, the “self-splicing fitness (ln)” value reads like this: (30 °C) -2.39 ± 0.13; (37 °C) -2 ± 0.12.

Turning to UCAUAGCAAUAUUACGGUUC, the “self-splicing fitness (ln)” value (30 °C) is -3.57 ± 0.35.

In the case of UCAUAGCAAUAUUACGUGUC, the “self-splicing fitness (ln)” value reads like this: (30 °C) -3.2 ± 0.21; (37 °C) -3.08 ± 0.27.

For UCAUAGCAAUAUUACGUUUA, the “self-splicing fitness (ln)” value is -4.13 ± 0.39 (30 °C) and -2.11 ± 0.2 (37 °C).

In the case of UCAUAGCAAUAUUACGUUUU, the “self-splicing fitness (ln)” value reads like this: (30 °C) -2.81 ± 0.14; (37 °C) -1.29 ± 0.14.

With UCCAAGCAAUAUUACGAACU, the “self-splicing fitness (ln)” value is, setting by setting: (30 °C) -2.6 ± 0.15; (37 °C) -1.06 ± 0.15.

In the case of UCCAAGCAAUAUUACGAAUG, the “self-splicing fitness (ln)” value reads like this: (30 °C) -4.26 ± 0.21; (37 °C) -2.95 ± 0.2.

Consider UCCAAGCAAUAUUACGACUG, for which the “self-splicing fitness (ln)” value is, setting by setting: (30 °C) -3.78 ± 0.16; (37 °C) -2.6 ± 0.17.

With UCCAAGCAAUAUUACGAGCA, the “self-splicing fitness (ln)” value is -0.834 ± 0.08 (30 °C) and -0.0464 ± 0.1 (37 °C).

On to UCCAAGCAAUAUUACGAGUU, for which the “self-splicing fitness (ln)” value was -3.75 ± 0.28 (30 °C) and -1.33 ± 0.2 (37 °C).

With UCCAAGCAAUAUUACGAUCG, the “self-splicing fitness (ln)” value was -2.65 ± 0.19 (30 °C) and -3.06 ± 0.24 (37 °C).

UCCAAGCAAUAUUACGCAUC: the “self-splicing fitness (ln)” value is, setting by setting: (30 °C) -3.02 ± 0.21; (37 °C) -2.93 ± 0.24.

Turning to UCCAAGCAAUAUUACGCCUC, the “self-splicing fitness (ln)” value reads like this: (30 °C) -2.33 ± 0.29; (37 °C) -2.53 ± 0.28.

On to UCCAAGCAAUAUUACGCCUG, for which the “self-splicing fitness (ln)” value (30 °C) was -4.15 ± 0.42 and the “self-splicing fitness (ln)” value (37 °C) was -2.26 ± 0.27.

As for UCCAAGCAAUAUUACGCGAG, the “self-splicing fitness (ln)” value by setting is: (30 °C) -4.03 ± 0.24; (37 °C) -2.93 ± 0.27.

As for UCCAAGCAAUAUUACGCUGA, the “self-splicing fitness (ln)” value was -1.43 ± 0.092 (30 °C) and -1.07 ± 0.085 (37 °C).

Take UCCAAGCAAUAUUACGCUGC: the “self-splicing fitness (ln)” value (30 °C) was -2.94 ± 0.21 and the “self-splicing fitness (ln)” value (37 °C) was -2.61 ± 0.27.

With UCCAAGCAAUAUUACGCUUG, the “self-splicing fitness (ln)” value is -3.72 ± 0.17 (30 °C) and -2.11 ± 0.28 (37 °C).

Turning to UCCAAGCAAUAUUACGGAAG, the “self-splicing fitness (ln)” value by setting is: (30 °C) -1.85 ± 0.2; (37 °C) -1.8 ± 0.24.

Consider UCCAAGCAAUAUUACGGACG, for which the “self-splicing fitness (ln)” value was -4.26 ± 0.2 (30 °C) and -2.82 ± 0.16 (37 °C).

For UCCAAGCAAUAUUACGGCGU, the “self-splicing fitness (ln)” value (30 °C) was -1.95 ± 0.091 and the “self-splicing fitness (ln)” value (37 °C) was -0.529 ± 0.1.

Consider UCCAAGCAAUAUUACGGUAA, for which the “self-splicing fitness (ln)” value runs as follows: (30 °C) -0.334 ± 0.067; (37 °C) 0.257 ± 0.076.

In the case of UCCAAGCAAUAUUACGUAUU, the “self-splicing fitness (ln)” value runs as follows: (30 °C) -3.44 ± 0.19; (37 °C) -2.46 ± 0.21.

With UCCAAGCAAUAUUACGUCGG, the “self-splicing fitness (ln)” value was -1.11 ± 0.074 (30 °C) and -0.182 ± 0.091 (37 °C).

For the sequence UCCAAGCAAUAUUACGUGCA, the “self-splicing fitness (ln)” value is -0.24 ± 0.083 (30 °C) and 0.425 ± 0.11 (37 °C).

Take UCCAAGCAAUAUUACGUUAG: the “self-splicing fitness (ln)” value reads like this: (30 °C) -1.97 ± 0.13; (37 °C) -2.91 ± 0.28.

On to UCCAAGCAAUAUUACGUUGU, for which the “self-splicing fitness (ln)” value reads like this: (30 °C) -3.79 ± 0.16; (37 °C) -1.7 ± 0.13.

For UCCAAGCAAUAUUACGUUUA, the “self-splicing fitness (ln)” value runs as follows: (30 °C) -3.15 ± 0.12; (37 °C) -1.98 ± 0.11.

Take UCCAAGCAAUAUUACGUUUG: the “self-splicing fitness (ln)” value (30 °C) was -3.5 ± 0.15 and the “self-splicing fitness (ln)” value (37 °C) was -2.97 ± 0.2.

UCCCAGCAAUAUUACGAACA: the “self-splicing fitness (ln)” value is -1.51 ± 0.13 (30 °C) and -0.139 ± 0.12 (37 °C).

On to UCCCAGCAAUAUUACGAAUG, for which the “self-splicing fitness (ln)” value by setting is: (30 °C) -2.98 ± 0.15; (37 °C) -2.61 ± 0.17.

For UCCCAGCAAUAUUACGAGGC, the “self-splicing fitness (ln)” value runs as follows: (30 °C) -2.23 ± 0.14; (37 °C) -0.738 ± 0.14.

In the case of UCCCAGCAAUAUUACGAGUU, the “self-splicing fitness (ln)” value was -3.85 ± 0.2 (30 °C) and -2.45 ± 0.15 (37 °C).

Take UCCCAGCAAUAUUACGAUCC: the “self-splicing fitness (ln)” value reads like this: (30 °C) -1.93 ± 0.41; (37 °C) -1.58 ± 0.46.

On to UCCCAGCAAUAUUACGAUUA, for which the “self-splicing fitness (ln)” value was -1.71 ± 0.12 (30 °C) and -1.36 ± 0.14 (37 °C).

As to UCCCAGCAAUAUUACGCACU, the “self-splicing fitness (ln)” value is -1.64 ± 0.12 (30 °C) and -1.04 ± 0.14 (37 °C).

As to UCCCAGCAAUAUUACGCAUG, the “self-splicing fitness (ln)” value was -4.28 ± 0.22 (30 °C) and -2.41 ± 0.19 (37 °C).

For the sequence UCCCAGCAAUAUUACGCCAU, the “self-splicing fitness (ln)” value by setting is: (30 °C) -3.09 ± 0.18; (37 °C) -2.83 ± 0.38.

For the sequence UCCCAGCAAUAUUACGCCUA, the “self-splicing fitness (ln)” value by setting is: (30 °C) -1.41 ± 0.078; (37 °C) -1.34 ± 0.08.

Regarding UCCCAGCAAUAUUACGCGCA, the “self-splicing fitness (ln)” value was -0.296 ± 0.093 (30 °C) and -0.219 ± 0.089 (37 °C).

In the case of UCCCAGCAAUAUUACGCUCA, the “self-splicing fitness (ln)” value reads like this: (30 °C) -1.48 ± 0.11; (37 °C) -0.496 ± 0.11.

Turning to UCCCAGCAAUAUUACGCUUU, the “self-splicing fitness (ln)” value is -2.7 ± 0.16 (30 °C) and -2 ± 0.15 (37 °C).

As for UCCCAGCAAUAUUACGGAAU, the “self-splicing fitness (ln)” value reads like this: (30 °C) -3.64 ± 0.18; (37 °C) -1.53 ± 0.12.

As for UCCCAGCAAUAUUACGGACG, the “self-splicing fitness (ln)” value was -3.93 ± 0.21 (30 °C) and -1.97 ± 0.12 (37 °C).

Consider UCCCAGCAAUAUUACGGAGG, for which the “self-splicing fitness (ln)” value runs as follows: (30 °C) -3.51 ± 0.14; (37 °C) -2.23 ± 0.18.

Take UCCCAGCAAUAUUACGGAUC: the “self-splicing fitness (ln)” value runs as follows: (30 °C) -2.71 ± 0.13; (37 °C) -1.64 ± 0.14.

With UCCCAGCAAUAUUACGGGCG, the “self-splicing fitness (ln)” value reads like this: (30 °C) -0.841 ± 0.058; (37 °C) -0.455 ± 0.07.

For the sequence UCCCAGCAAUAUUACGGUGA, the “self-splicing fitness (ln)” value was -1.57 ± 0.11 (30 °C) and -1.02 ± 0.11 (37 °C).

In the case of UCCCAGCAAUAUUACGGUUU, the “self-splicing fitness (ln)” value is -1.23 ± 0.061 (30 °C) and -0.274 ± 0.076 (37 °C).

Regarding UCCCAGCAAUAUUACGUAUA, the “self-splicing fitness (ln)” value was -2.5 ± 0.1 (30 °C) and -1.33 ± 0.1 (37 °C).

Turning to UCCCAGCAAUAUUACGUCUC, the “self-splicing fitness (ln)” value (30 °C) is -3.23 ± 0.22 and the “self-splicing fitness (ln)” value (37 °C) was -2.89 ± 0.25.

Turning to UCCCAGCAAUAUUACGUGCU, the “self-splicing fitness (ln)” value runs as follows: (30 °C) -3.59 ± 0.2; (37 °C) -2.92 ± 0.19.

On to UCCCAGCAAUAUUACGUGGU, for which the “self-splicing fitness (ln)” value was -1.53 ± 0.069 (30 °C) and -0.339 ± 0.071 (37 °C).

UCCCAGCAAUAUUACGUUAG: the “self-splicing fitness (ln)” value was -4.08 ± 0.19 (30 °C) and -2.78 ± 0.18 (37 °C).

For the sequence UCCCAGCAAUAUUACGUUCG, the “self-splicing fitness (ln)” value runs as follows: (30 °C) -3.65 ± 0.2; (37 °C) -2.96 ± 0.27.

As to UCCGAGCAAUAUUACGCAGC, the “self-splicing fitness (ln)” value was -4.03 ± 0.35 (30 °C) and -2.51 ± 0.39 (37 °C).
